Laboratory results taken from the DeepSol protein solubility set.

Assay: soluble on expression in E. coli; label from the status in PepcDB or PDB records

| Sequence | soluble on expression in E. coli |
| --- | --- |
| MSLFRIQLRTMSSKTCKSDYPKEFVSFLNSSHSPYHTVHNIKKHLVSNGFKELSERDSWAGHVAQKGKYFVTRNGSSIIAFAVGGKWEPGNPIAITGAHTDSPALRIKPISKRVSEKYLQVGVETYGGAIWHSWFDKDLGVAGRVFVKDAKTGKSIARLVDLNRPLLKIPTLAIHLDRDVNQKFEFNRETQLLPIGGLQEDKTEAKTEKEINNGEFTSIKTIVQRHHAELLGLIAKELAIDTIEDIEDFELILYDHNASTLGGFNDEFVFSGRLDNLTSCFTSMHGLTLAADTEIDRESGIRLMACFDHEEIGSSSAQGADSNFLPNILERLSILKGDGSDQTKPLFHSAILETSAKSFFLSSDVAHAVHPNYANKYESQHKPLLGGGPVIKINANQRYMTNSPGLVLVKRLAEAAKVPLQLFVVANDSPCGSTIGPILASKTGIRTLDLGNPVLSMHSIRETGGSADLEFQIKLFKEFFERYTSIESEIVVEGHHHHHH | soluble |
| MSLGAKKEGFQTMVITDNKRENFYKNFSFIDNIYAYASLDEAVSIINGIKDYGILIPHGSLVEYLGKERVDKIETKIFGNKKIFEWEADQKKKMELLRKSNIKIPEIFERPEDVDRLVIVKLNGAKGGKGYFLARNKSEVKEGIQKLIESKMIRDENEVIIQEYVVGVPMYFQFFYSDIINRTEIFGIDIRYETNIDGLRRLPFEYMKELKINPTFVVVGNIPAVARESLLPVALEYANNFVRTTKELVPPGMIGPFCLESIITDNSDIVVFEFSGRIVAGTNLYVNGSPYSWLYWDEPMSIGRRIAREIRVANEKDKLSLVVSEGHHHHHH | not soluble |
| MSLGDERPDVLLTGLLFYDLVLTGLGKPPTPGEEIWTEGMGVSPGGIANLAVAASRFGLRTSLATVFGDDHYGAYCRGVLAGQEGIDLSLSRTADGWHTPVTVSLAYGHDRALVTHGQDPPYSQDALMGDPPEARTALVHIEAEPHAWLAKAAANGTRIYADVGWDPTQQWSRDLLDQLSLCHAFLPNEAEAMAYTRTDSAMAALGTLTDLVPVAVVTRGGDGAVAVDQTTGEYAEVPALDIDVLDPTGAGDVFGASFVAASLGGWPLAERLRFAVLAAGLSVQRHGGALAAPGWYGVHRWWHSLEDPGLRRAYGFLADRIPADPGPPVRHAPVTPPDATRREGHHHHHH | soluble |
| MSLGEFVFKGLLQEKGWIENAVVKTNDFGVITSIKSDPERKDGCDYAIPGFQNAHSHAFQYAMAGLAELHSTSKTKNDFWSWRKIMYDLALNITPDQMEDIATMLYKEMLRHGYTHVAEFHYLHHDLSGEKYNNCSEMGERIIAAAKRAGIKLTLVPIFYQNGGFGRKAENEQRRFISSSFNDYKNLVEASISSSKNYEHSSVAYGIHSMRAVSAENIIKLSEQKENGAPFHIHVSEQLKEIEDSVAFLGLRPVDWLSENIDLNPDYHLVHATHLTQNEIESIAKSQANVVLCPSTEGNLGDGIFPLNEFLKHGGKWSIGTDSHVGLNPFEELRILDYGQRLISHNRNTFGNNISGDNGNIAISSALVNGRKAMGIEQTHYFEVGKSFDALIISDQHPLIQTVSLKNLTNTLVYSSDNSMYKGTIVNGDWKIKDGQHADDNIHADFIQTLNALKVREGHHHHHH | soluble |
| MSLGEKMAIWRTKKPATKQKIVSDLQELGIKKGDTIIFHASMSKAHWICGGPVTVILALQELVGELGNIVMPAQTGQLSDPAKWENPPVPESWWKIIRRETPPFDPLVTPTRGMGVIAETFRTMPDVERSFHPYHSFCAWGKDKKQILANQPLAKSMGDESPLGKMYQLDAKIILFGVDNNNNTSLHLAEERSNAFPLIENQAAFLKNGEIIWEKYQEIDYNSEVFIALGRAYEKEHDFHPTTIIGAPTKIYDMRDLVDFGTKYFQTKNHEGHHHHHH | soluble |
| MSLGGDNAEYGYVEQTHPAFIAGSFTTEKNAKSRYYLLAKYEMTVLQYSALTQAECPAPSNKQRLPVVSLSWMQAMEAADKYNIWLRENAADKLPKEDGVAGFLRLPTEVEWEFAARGGLNVSTAEFRDLRYPMPEGVNAYEWFAGTQSANGQLQLSGLLKPNPLGLHDMLGNVDEMMFEPFRLNKLDRQHGQAGGYVVRGGDFRTAQGELRSSLRKERNYYDAKAAATSKTTGVRLALASSTLTSRERVSSIETSWKKLGTGSGDTSQGEDKSAVQALGTLASGVADEALKEKLKALENQLRASNQQQEETRDQAIRASLNLGAFLCTKMLDDGKYLDFLQKNYALNCSAAEQDASCPMRKGKLDEQKDRLHKLSRYYASSLVDSATLYGEPLLARQIPVMGEIISRNEQLKELKPYLQTHWVNQQAFLKTQKIDTDAWLNRCKAVQEGHHHHHH | not soluble |
| MSLGIRGLDLSDLFVSGASYKRLGSEEMMRSTFQKLDREIAAIFLGLSDGTISKAIEYSKVRTAFDHPLKDYSPIFDDLVSLKMEIDVLRFYLYGSGDEYSRALIKIKAKDLSLRATRVSLQTHGGYGYIHDFGIEKYYRDAMALSVYFGQDKYENMVLSDHIFGEAGGEGHHHHHH | not soluble |
| MSLGIYMRDDILDIITLTTDFGTNEGYVGAMKGRILNILKKYNKDAKIIDISHEIKPFNIYHGAYVLLTAIPYFPPSVHVAVIDPTVGSERKSIVIETKSGYYLVGPDNGLFTYVAEKLGIKRIIKIDEERYKPSSTFHGRDVYAVVGAEILINNGYDGEELDEMVKIDETKKRVIHIDRFGNIITNIKKDEVTFKYYDTIMIKIRHKNGIEKIIKCKFVKSYFEEKNNFICLINSEGFLEISKFMDNASKLLNVDYLDEIEIEGGSHHHHHH | soluble |
| MSLGLIRAQPKSGYYVSNHAIKQLASKTTPVPEQASTVVSISDMVFSILSSIKDPETVPLGSAFPWPDLFPLARLSRSLAHATRDMGPAAIVESLPPGNHDLRRQIARRYLMQGVEADVDNILITNGAFEALNLCLEAVTQPGDLVAIESPTFHGCLQALERLQLKAVEIPVDPVLGMDLDYLESVLEKCPVRACWSMTSFQNPMGVSMPAERKQVLVELLTRYRIPLIEDDVYGELYFGMQEHRPAKAYDSEGYVMHCSSFSKTLAPGYRIGWALLPKRFERKVERLKVITSLSTSTIAQAAIADFLQHGGYDRHLRRLRTKFELQQHQYLHLIARYFPAETQVTRPHGGYFLWVDLPERVDALVLFQRALEQGVSVAPGPIFSARHQCCNCIRINYSKPVDAEVEQAFKTLGRLMSSIEAEGHHHHHH | soluble |
| MSLGMASHPPIPILELADHIERLKANDNLKFSQEYESIDPGQQFTWEHSNLEVNKPKNRYANVIAYDHSRVLLSAIEGIPGSDYVNANYIDGYRKQNAYIATQGSLPETFGDFWRMIWEQRSATVVMMTKLEERSRVKCDQYWPSRGTETHGLVQVTLLDTVELATYCVRTFALYKNGSSEKREVRQFQFTAWPDHGVPEHPTPFLAFLRRVKTCNPPDAGPMVVHCSAGVGRTGCFIVIDAMLERIKHEKTVDIYGHVTLMRAQRNYMVQTEDQYIFIHDALLEAVTCGNTEVPARNLYAYIQKLTQIETGENVTGMELEFKRLEGHHHHHH | soluble |
| MSLGNAPLPFDVGGPFELTDQHGARRSQADPQGHGQLLFFGYATCPGICSAAMPMMADAVDRLAEAGIPVTPVMITVDPERDRPGEMNAPLARYHPDFIGLTGSEAELQAAYSAYSVERELAYVDPEYGPVYTHGAFIYLLDAKGEVLSLFPPILSSDRVVELARKYLGSEGEGHHHHHH | soluble |
| MSLGQDGFRLADYIREHVENGDKLVIRVSYHNTSLGFANPMREGVEKAKRELGVDAELIGPANGSAQEQVSELQTLISQQKVDGLAVSSASNDALKPVIAQAYNAGIPIISFNTNNPGSKQMAFVGQDLVQSGRFEAEQLRKELGDRKGKVVVFSVDTGAGWSNDRFSGFEAGMEGAEGIQIEGPINSGNEPRQAFNAVQNTMTANPDAIAIASLDCCSVDAAAKWVQQNGKKGEIIVVGFDVLPQTADFIRNGVIQFTISQNPVEQGYQSVKILNDFLKKNKPLRDVNTGTKLVDKSNIDEVPLEEGHHHHHH | soluble |
| MSLGQEEAGKLLDSLAEPSKKAYRINSLKEGAVVYPQEEAVPGIPNAYYGEVSGKDPEWTAGLVYSQDPAAMFPAQAIPVKPGDKVLDLCAAPGGKSTALAQKLQGEGLLVANEISPSRAKILRENLERWGVSNAVVTNCDSFALSARFPGFFDAILVDAPCSGEGMFRKSEDAIKYWSQENVDLCADRQREILTEAVKMLKPGGYLLYSTCTFSPEEDEEIVSWLLDEYGFKLLPIAAEKAAPGRPEWGNGDASLANCARFWPQDGVGEGQFVASLQKAAGEESFAAEAGEVFSPVRKNKDKKKKGKGKNKGNRSSLERPSKEESCYISEAIAGFNWPESLASWPSQMLKSQDHVFVPALEPEQLKGIKVLSNGLELGILKKKRFEPSHQLAEVLGQVDQERVVDLTEEEYDHYLHGESLQVNSSLKGFVLVSCRGMIFSFGKLSGKGQLKNYYPKGLRQKGIITITTDPNSSSVDKLAAALEHHHHHH | soluble |
| MSLGRFVRHALITAGTKGLGKQVTEKLLAKGYSVTVTYHSDTTAMETMKETYKDVEERLQFVQADVTKKEDLHKIVEEAMSHFGKIDFLINNAGPYVFERKKLVDYEEDEWNEMIQGNLTAVFHLLKLVVPVMRKQNFGRIINYGFQGADSAPGWIYRSAFAAAKVGLVSLTKTVAYEEAEYGITANMVCPGDIIGEMKEATIQEARQLKEHNTPIGRSGTGEDIARTISFLCEDDSDMITGTIIEVTGAVDVIHREGHHHHHH | soluble |
| MSLGRIGLRKLLQRIGIVAESMTPLATDPVEVTQLLDARWYDERLRALADELGRDPDSVRAEAAGYLREMAASLDERAVQAWRGFSRWLMRAYDVLVDEDQITQLRKLDRKATLAFAFSHRSYLDGMLLPEAILANRLSPALTFGGANLNFFPMGAWAKRTGAIFIRRQTKDIPVYRFVLRAYAAQLVQNHVNLTWSIEGGRTRTGKLRPPVFGILRYITDAVDEIDGPEVYLVPTSIVYDQLHEVEAMTTEAYGAVKRPEDLRFLVRLARQQGERLGRAYLDFGEPLPLRKRLQEMRADKSGTGSEIERIALDVEHRINRATPVTPTAVVSLALLGADRSLSISEVLATVRPLASYIAARNWAVAGAADLTNRSTIRWTLHQMVASGVVSVYDAGTEAVWGIGEDQHLVAAFYRNTAIHILVDRAVAELALLAAAETTTNGSVSPATVRDEALSLRDLLKFEFLFSGRAQFEKDLANEVLLIGSVVDTSKPAAAADVWRLLESADVLLAHLVLRPFLDAYHIVADRLAAHEDDSFDEEGFLAECLQVGKQWELQRNIASAESRSMELFKTALRLARHRELVDGADATDIAKRRQQFADEIATATRRVNTIAELARRQEGHHHHHH | soluble |
| MSLGSIKDNLSEIRNKIDKAAKKVDRDSKEITLLAVTKTVDVDLVNEAMREGITSVGENKPQELARKYDIIGDKLNWHLIGTLQTNKVKYIIDKVCMIHSLDRIALCEEIQKRAEQINREIDCLVQVNISKEESKHGLDREEVVDFVKEVSEKYKNIKIKGLMTMAPFIEDEDEIRGVFKGLKDLSKQIKELNIPNVGMDVLSMGMSHDYEIAIEEGATIVRVGTSIFGERNYNKEGHHHHHH | soluble |
| MSLGSVFRHIEGGMLFPQGSVTCIGAFDGLHLGHRALVRHALQRATALHLPTVALSFEPLPREYFASTTPPPRLTLTRAKIQGLHRFGADSVGLLRFDSRLASMSPQTFVERVLLGRLGVREVLIGPQFRFGHQRSGDIALLQRLGLEHGFTATEIPPLHLNNERISATKIRALLAAGDFAHAAELLGRPYMIGGRVVRGQQLGSTLGYPTANLRFPHPIALSGIYATWVHGIFEQPWPSVSSFGTRPTVAGVEPLLEVHLFDFHSDLYGRRIDVEFIAKLRDEETFPDLHTMTTQIHRDAQQARHILSEHRLRAEGHHHHHH | not soluble |
